Assay results from patent publication US20250034266A1.
Read-outs that look alike come from different tables or passages of the source.

Experiments:
[1] = biological target: human CCR8 (human) (UniProt P51685); test: FACS on HEK293-human CCR8 cells
[2] = biological target: human CCR8 (human) (UniProt P51685); test: cell-based or functional assay
[3] = biological target: cynomolgus CCR8 (cynomolgus) (UniProt G7NYJ2); test: FACS on HEK293-cynomolgus CCR8 cells
[4] = biological target: cynomolgus CCR8 (cynomolgus) (UniProt G7NYJ2); test: FACS on ExpiCHO-S-cynomolgus CCR8 cells
[5] = biological target: human CCR8 (human) (UniProt P51685); test: FACS on HuT78 cells (endogenous human CCR8)
[6] = biological target: human CCR8 (human) (UniProt P51685); test: FACS on HEK293-human CCR8 cells; remark: listed apart in the source
[7] = biological target: cynomolgus CCR8 (cynomolgus) (UniProt G7NYJ2); test: FACS on HEK293-cynomolgus CCR8 cells; remark: listed apart in the source
[8] = biological target: cynomolgus CCR8 (cynomolgus) (UniProt G7NYJ2); test: FACS on cynomolgus CCR8 cells
[9] = biological target: human CCR8 (human) (UniProt P51685); test: FACS, competition with CCL1 on CHO-K1-human CCR8 cells
[10] = biological target: human CCR8 (human) (UniProt P51685); test: FACS on HEK293-human CCR8 cells; remark: listed apart in the source
[11] = biological target: human CCR8 tagged with ProLink (PK) (human) (UniProt P51685); test: cell-based or functional assay
[12] = biological target: human CCR8 (human) (UniProt P51685); test: cell-based or functional assay; remark: listed apart in the source
[13] = biological target: human CCR8 (human) (UniProt P51685); test: FACS, competition with AF647-human CCL1 on HEK293-human CCR8 cells
[14] = biological target: human CCR8 (human) (UniProt P51685); test: FACS on CHO-K1-human CCR8 cells
[15] = biological target: human CCR8 (human) (UniProt P51685); test: FACS, competition with AF647-human CCL1 on CHO-K1-human CCR8 cells
[16] = biological target: cynomolgus CCR8 (cynomolgus) (UniProt G7NYJ2); test: FACS on HEK293-cynomolgus CCR8 cells; remark: listed apart in the source
[17] = biological target: human CCR8 (human) (UniProt P51685); test: cell-based or functional assay; remark: listed apart in the source
[18] = biological target: human CCR8 (human) (UniProt P51685); test: FACS competition with 4 nM AF647-human CCL1 on human CCR8 cells
[19] = biological target: human CCR8 (human) (UniProt P51685); test: FACS on CHO-K1-human CCR8 cells; remark: listed apart in the source
[20] = biological target: human CCR8 (human) (UniProt P51685); test: FACS on CHO-K1-human CCR8 cells; remark: listed apart in the source
[21] = biological target: cynomolgus CCR8 (cynomolgus) (UniProt G7NYJ2); test: FACS on HEK293-Cynomolgus CCR8 cells
[22] = biological target: human CCR8 (human) (UniProt P51685); test: FACS, competition with AF647-human CCL1 on CHO-K1-human CCR8 cells; remark: listed apart in the source
[23] = biological target: human CCR8 (human) (UniProt P51685); test: as above; remark: listed apart in the source
[24] = biological target: cynomolgus CCR8 (cynomolgus) (UniProt G7NYJ2); test: FACS on HEK293-cynomolgus CCR8 cells; remark: listed apart in the source
[25] = biological target: human CCR8 (human) (UniProt P51685); test: FACS on HEK293-human CCR8 cells; remark: listed apart in the source
[26] = biological target: human CCR8 (human) (UniProt P51685); test: FACS, competition with AF647-human CCL1 on CHO-K1-human CCR8 cells; remark: listed apart in the source
[27] = biological target: human CCR8 (human) (UniProt P51685); test: FACS, competition with CCL1 on CHO-K1-human CCR8 cells; remark: listed apart in the source
[28] = biological target: human CCR8 (human) (UniProt P51685); test: FACS, competition with AF647-human CCL1 on CHO-K1-human CCR8 cells; remark: listed apart in the source
[29] = biological target: T1, human CCR4 (human) (UniProt P51679); test: FACS on ExpiCHO-S-human CCR4 cells
T1 sequence (looked up): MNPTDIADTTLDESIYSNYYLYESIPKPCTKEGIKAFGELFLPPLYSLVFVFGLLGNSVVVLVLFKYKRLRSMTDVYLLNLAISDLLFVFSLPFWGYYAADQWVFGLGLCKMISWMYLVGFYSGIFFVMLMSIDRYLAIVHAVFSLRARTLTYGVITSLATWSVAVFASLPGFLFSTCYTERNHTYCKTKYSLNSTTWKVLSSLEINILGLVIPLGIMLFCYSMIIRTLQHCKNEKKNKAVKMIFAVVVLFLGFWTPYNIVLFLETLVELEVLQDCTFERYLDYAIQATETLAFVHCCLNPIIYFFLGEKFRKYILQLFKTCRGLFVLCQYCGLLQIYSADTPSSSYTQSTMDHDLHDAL

[30] = biological target: T2, human CCR1 (human) (UniProt P32246); test: FACS on ExpiCHO-S-human CCR1 cells
T2 sequence (looked up): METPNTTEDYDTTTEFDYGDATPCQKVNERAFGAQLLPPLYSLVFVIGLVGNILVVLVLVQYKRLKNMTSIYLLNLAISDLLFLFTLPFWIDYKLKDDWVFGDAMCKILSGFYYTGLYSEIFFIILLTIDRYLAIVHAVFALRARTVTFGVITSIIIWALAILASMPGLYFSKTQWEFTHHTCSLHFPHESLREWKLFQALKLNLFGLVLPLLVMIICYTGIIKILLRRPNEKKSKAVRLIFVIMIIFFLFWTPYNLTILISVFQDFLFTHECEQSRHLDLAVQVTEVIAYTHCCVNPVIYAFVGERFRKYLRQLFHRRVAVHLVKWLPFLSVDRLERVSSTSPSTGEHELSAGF

[31] = biological target: human CCR8 (human) (UniProt P51685); test: FACS on HuT78 cells (endogenous human CCR8); remark: listed apart in the source
[32] = biological target: cynomolgus CCR8 (cynomolgus) (UniProt G7NYJ2); test: FACS on HEK293-cynomolgus CCR8 cells; remark: listed apart in the source
[33] = biological target: human CCR8 (human) (UniProt P51685); test: FACS on HEK293-human CCR8 cells; remark: listed apart in the source

Sequence of human CCR8 (human) (P51685 whole entry): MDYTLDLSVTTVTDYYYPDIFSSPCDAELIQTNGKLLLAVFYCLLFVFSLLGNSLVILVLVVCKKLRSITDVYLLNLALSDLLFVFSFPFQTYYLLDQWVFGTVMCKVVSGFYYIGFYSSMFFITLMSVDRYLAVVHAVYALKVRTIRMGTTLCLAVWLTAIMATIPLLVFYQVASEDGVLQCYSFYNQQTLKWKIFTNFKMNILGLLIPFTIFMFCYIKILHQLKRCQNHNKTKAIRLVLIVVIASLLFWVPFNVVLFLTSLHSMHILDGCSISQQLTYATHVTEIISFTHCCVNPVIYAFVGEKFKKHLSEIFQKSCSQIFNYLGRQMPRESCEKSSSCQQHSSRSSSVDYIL
Sequence of cynomolgus CCR8 (cynomolgus) (G7NYJ2 entry or part of it): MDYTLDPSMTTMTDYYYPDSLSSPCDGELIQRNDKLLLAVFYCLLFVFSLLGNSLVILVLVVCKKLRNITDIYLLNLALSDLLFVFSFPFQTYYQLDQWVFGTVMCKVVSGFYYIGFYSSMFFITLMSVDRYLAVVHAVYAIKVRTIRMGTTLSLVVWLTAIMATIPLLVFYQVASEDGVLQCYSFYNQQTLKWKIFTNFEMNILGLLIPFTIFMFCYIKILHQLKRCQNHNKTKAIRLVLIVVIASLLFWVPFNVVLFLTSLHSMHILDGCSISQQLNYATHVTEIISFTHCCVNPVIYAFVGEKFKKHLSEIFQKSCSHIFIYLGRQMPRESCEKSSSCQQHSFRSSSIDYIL
Sequence of human CCR8 tagged with ProLink (PK) (human) (P51685 whole entry): as the sequence (P51685 whole entry) above

B1: 433H monoclonal antibody (BD Biosciences, #644092) (antibody, from another filing, mouse IgG2a, V domains shown)
VH: EVQLVETGGGLVQPKGSLRLSCAASGFPFNTFAMNWVRQAPGKGLEWLARIRSKSNNYATYYADSVKDRFTISRDDSRRMLYLLMNNVKFEDTAIYYCVRGKENNYGYAMDYWGQGTSVTVSS
VL: DIVMTQAAPSVPVTPGESVSISCRSSQSLLHSNGNTYLYWFLQRPGQSPQLLIYRMSNLASGVPDRFSGSGSGTAFTLRISRVEAEDVGVYYCMQHLEYPFTFGIGTKLELKR
B1 gave an EC50 [1] of 215 pM, a Max MFI [1] of 5940 MFI and an IC50, inhibition of CCL1 induced β-Arrestin recruitment [2] of 230 pM. It also gave a Max Inhibition (%), CCL1 induced β-Arrestin recruitment [2] of 92.6%, an EC50 [3] of 9080 pM and a Max MFI [3] of 802 MFI. For the same binder, the Max MFI [4] was 27 MFI, the Max MFI [5] was 31900 MFI and the EC50 [6] was 87.8 pM. It also gave a Max MFI [6] of 3890 MFI, a Max MFI [7] of 648000 MFI and a Binding Ratio (GFP + MFI)/(GFP - MFI) [8] of 7.9. The IC50 [9] was 178 pM, the Max Inhibition (%) [9] was 99.6% and the EC50 [10] was 197 pM. It also gave a Max MFI [10] of 2780 MFI, an IC50, inhibition of CCL1 induced β-Arrestin recruitment, CHO-K1-human CCR8 β-Arrestin cells [11] of 6540 pM and a Max Inhibition (%), CCL1 induced β-Arrestin recruitment, CHO-K1-human CCR8 β-Arrestin cells [11] of 80.3%. The IC50, blocking of CCL1 induced cell migration [12] was 1250 pM, the IC50, blocking of cell migration induced by CCL1 [12] was 278 pM and the IC50, inhibition of CCL1 induced β-Arrestin recruitment [12] was 1060 pM. The Max Inhibition (%), CCL1 induced β-Arrestin recruitment [12] was 89.9%, the Max Inhibition (%), cell migration induced by CCL1 [12] was 104% and the Max inhibition (%), CCL1 induced cell migration [12] was 117%. The IC50 [13] was 335 pM, the Max Inhibition (%) [13] was 98.8% and the EC50 [14] was 82.3 pM. The Max MFI [14] was 814000 MFI, the IC50 [15] was 171 pM and the Max Inhibition (%) [15] was 98.7%. For the same binder, the EC50 [16] was 19400 pM, the Max MFI [16] was 1.72e+06 MFI and the IC50, inhibition of CCL1 induced β-Arrestin recruitment [17] was 890 pM. It also gave a Max Inhibition (%), CCL1 induced β-Arrestin recruitment [17] of 92.5%, an Inhibition Rate (%) [18] of 100% and an EC50 [19] of 69.9 pM. The Max MFI [19] was 215000 MFI, the Binding Ratio (GFP + MFI)/(GFP - MFI) [20] was 158 and the EC50 [20] was 124 pM. For the same binder, the Max MFI [20] was 4920 MFI, the Max MFI [21] was 2010 MFI and the IC50 [22] was 243 pM. The Max Inhibition (%) [22] was 96%, the IC50 [23] was 198 pM and the Max Inhibition (%) [23] was 99.6%. For the same binder, the Max MFI [24] was 1240 MFI, the EC50 [25] was 119 pM and the Max MFI [25] was 2810 MFI. It also gave an IC50 [26] of 193 pM, a Max Inhibition (%) [26] of 99.1% and an IC50 [27] of 114 pM. It also gave a Max Inhibition (%) [27] of 100%, an IC50 [28] of 143 pM and a Max Inhibition (%) [28] of 99.8%. For the same binder, the Max MFI [29] was 6.1 MFI, the Max MFI [30] was 133 MFI and the EC50 [31] was 123 pM. The Max MFI [31] was 60800 MFI, the Max MFI [32] was 2340 MFI and the EC50 [33] was 117 pM. The Max MFI [33] was 2020 MFI.

B2: Hu149-11G1x (antibody, V domains shown, not shown: a dimerising Fc or GST)
VH: EVQLVESGGGLVQPGGSLKLSCAASGFTFNTYAMNWVRQASGKGLEWVGRIRSKSNFYATAYAASVKGRFTISRDDSKNTAYLQMNSLKTEDTAVYYCTRGREYGSSYAMDYWGQGTLVTVSS
VL: DIVMTQSPLSLPVTPGEPASISCRSSKSLLHSNANTYLYWFLQKPGQSPQLLIYRMSNLASGVPDRFSGSGSGTDFTLKISRVEAEDVGVYYCMQHLEYPLTFGGGTKVELK
Binder B2 has an EC50, ADCC reporter, F variant CD16a/NFAT-Jurkat, target CHO-K1-human CCR8 cells [12] of 3.51 pM, an EC50, ADCC reporter, F variant CD16a/NFAT-Jurkat, target HuT78 cells [12] of 4.6 pM and an EC50, ADCC reporter, V variant CD16a/NFAT-Jurkat, target CHO-K1-human CCR8 cells [12] of 4.87 pM. It also gave an EC50, ADCC reporter, V variant CD16a/NFAT-Jurkat, target HuT78 cells [12] of 5.59 pM, an EC50, ADCC with human PBMCs, target CHO-K1-human CCR8 cells [12] of 0.384 pM and a Max (RLU), ADCC reporter, F variant CD16a/NFAT-Jurkat, target CHO-K1-human CCR8 cells [12] of 8.34e+06 RLU. It also gave a Max (RLU), ADCC reporter, F variant CD16a/NFAT-Jurkat, target HuT78 cells [12] of 1.51e+07 RLU, a Max (RLU), ADCC reporter, V variant CD16a/NFAT-Jurkat, target CHO-K1-human CCR8 cells [12] of 4.09e+06 RLU and a Max (RLU), ADCC reporter, V variant CD16a/NFAT-Jurkat, target HuT78 cells [12] of 9.06e+06 RLU. The Max specific lysis (%), ADCC with human PBMCs, target CHO-K1-human CCR8 cells [12] was 44.2%.

B3: Hu149-9 (antibody, human IgG1, V domains shown)
VH: EVQLVESGGGLVQPGGSLKLSCAASGFTFNTYAMNWVRQASGKGLEWVGRIRSKSNFYATAYAASVKGRFTISRDDSKNTAYLQMNSLKTEDTAVYYCTRGRDYGSSYAMDYWGQGTLVTVSS
VL: DIVMTQSPLSLPVTPGEPASISCRSSKSLLHSNANTYLYWFLQKPGQSPQLLIYRMSNLASGVPDRFSGSGSGTDFTLKISRVEAEDVGVYYCMQHLEYPLTFGGGTKVELK
In the case of B3, the Max MFI [29] is reported as 32.8 MFI and the Max MFI [30] is reported as 226 MFI.
